Measurements as given in US20240279328A1 (Johns Hopkins, published 2024).
Read-outs that look alike come from different tables or passages of the source.

Columns and labels:
human Interleukin-2 [1] = target: T1, human Interleukin-2 (human, UniProt P60568 21-153, biotinylated (site not stated) when immobilised on streptavidin biosensors; soluble in the competition studies); test: cell-based or functional assay
human Interleukin-2 [2] = target: T1, human Interleukin-2; test: BLI, equilibrium KD from titration curve, immobilised human IL-2, soluble antibody
Method: (§1) Biolayer interferometry binding studies: Binding studies were performed via bio-layer interferometry using an OctetRED96® biolayer interferometry instrument (Sartorius). […] Once baseline measurements were collected in PBSA, binding kinetics were measured by submerging the biosensors in wells containing serial dilutions of the appropriate analytes for 300 s (association) followed by submerging the biosensor in wells containing only PBSA for 500 s (dissociation). […] An irrelevant protein (the monoclonal antibody ipilimumab) was used as a control for nonspecific binding. Tips were regenerated in 0.1 M glycine pH 2.7. Data was processed and kinetic parameters were calculated using the Octet® Data Analysis software version 7.1 (Sartorius), assuming a 1:1 Langmuir binding model. Equilibrium binding was determined by total response measured after 295 s. Equilibrium titration curve fitting and KD value determination was implemented using GraphPad Prism, assuming all binding interactions to be first order.

human Interleukin-2 [3] = target: T1, human Interleukin-2; test: BLI (Octet), biotinylated human IL-2 immobilised on streptavidin tip, soluble antibody titrated, normalized equilibrium response
Method: Error bars represent s.d.
as §1, with “model.” for “model. Equilibrium binding was determined by total response measured after 295 s. Equilibrium titration curve fitting and KD value determination was implemented using GraphPad Prism, assuming all binding interactions to be first order.”

human Interleukin-2 [4] = target: T1, human Interleukin-2; test: BLI (Octet), biotinylated human IL-2 on streptavidin sensors, soluble antibody, 1:1 Langmuir fit
Method: as §1

human Interleukin-2 [5] = target: T1, human Interleukin-2; test: BLI, kinetic KD, immobilised human IL-2, soluble antibody
Method: as §1

human Interleukin-2 [6] = target: T1, human Interleukin-2; test: BLI (Octet), immobilised human IL-2, soluble antibody, 1:1 Langmuir fit
human Interleukin-2 [7] = target: T1, human Interleukin-2; test: cell-based or functional assay; remark: listed apart in the source
human Interleukin-2 [8] = target: T1, human Interleukin-2; test: BLI, equilibrium KD from titration curve, immobilised human IL-2, soluble antibody; Equilibrium KD, not kinetic KD
human Interleukin-2 [9] = target: T1, human Interleukin-2; test: BLI, kinetic KD, immobilised human IL-2, soluble antibody; remark: listed apart in the source
human Interleukin-2 [10] = target: T1, human Interleukin-2; test: BLI, equilibrium KD from titration curve, immobilised human IL-2, soluble antibody; remark: listed apart in the source

T1 sequence (P60568 21-153 limits assumed): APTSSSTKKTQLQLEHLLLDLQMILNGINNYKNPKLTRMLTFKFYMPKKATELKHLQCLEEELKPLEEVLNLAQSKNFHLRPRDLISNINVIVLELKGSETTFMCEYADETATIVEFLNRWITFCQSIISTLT

Row | Binder | YT+ EC50 (STAT5 phosphorylation, IL-2Rα+ YT-1 cells) (human Interleukin-2 [1]) | YT- EC50 (STAT5 phosphorylation, IL-2Rα- YT-1 cells) (human Interleukin-2 [1]) | Kd (human Interleukin-2 [2]) | EC50 (read off the curve) (human Interleukin-2 [3]) | koff (human Interleukin-2 [4]) | kon (human Interleukin-2 [4]) | Kd (human Interleukin-2 [5]) | koff (human Interleukin-2 [6]) | kon (human Interleukin-2 [6]) | YT+ EC50 (STAT5 phosphorylation, IL-2Rα+ YT-1 cells) (human Interleukin-2 [7]) | YT- EC50 (STAT5 phosphorylation, IL-2Rα- YT-1 cells) (human Interleukin-2 [7]) | Kd (human Interleukin-2 [8]) | Kd (human Interleukin-2 [9]) | Kd (human Interleukin-2 [10])
1 | 602 antibody (wild type anti-human IL-2 antibody) (antibody, mouse IgG2a, kappa) heavy: DEVQLQESGPGLVAPSQSLSITCTVSGFSLTNYDISWIRQPPGKGLEWLGVIWTGGGTNYNSGFMSRLSITKDNSKSQVFLKMNSLQTDDTAIYYCVRQGRTPYWGQGTLVTVSAAKTTAPSVYPLAPVCGDTTGSSVTLGCLVKGYFPEPVTLTWNSGSLSSGVHTFPAVLQSDLYTLSSSVTVTSSTWPSQSITCNVAHPASSTKVDKKIEPRGPTIKPCPPCKCPAPNLLGGPSVFIFPPKIKDVLMISLSPIVTCVVVDVSEDDPDVQISWFVNNVEVHTAQTQTHREDYNSTLRVVSALPIQHQDWMSGKEFKCKVNNKDLPAPIERTISKPKGSVRAPQVYVLPPPEEEMTKKQVTLTCMVTDFMPEDIYVEWTNNGKTELNYKNTEPVLDSDGSYFMYSKLRVEKKNWVERNSYSCSVVHEGLHNHHTTKSFSRTPGK light: AGSDIQVTQSPSSLSVSLGDRVTITCKASKDIYNRLAWYQQKPGNAPRLLISGATSLETGVPSRFSGSGSGKDYTLTITSLQTEDVATYYCQQFWGTPYTFGGGTKLEIKRADAAPTVSIFPPSSEQLTSGGASVVCFLNNFYPKDINVKWKIDGSERQNGVLNSWTDQDSKDSTYSMSSTLTLTKDEYERHNSYTCEATHKTSTSPIVKSFNRNEC | 0.18 nM | 5.2 nM | 3.2 nM | ~3 nM | 0.0019 s⁻¹ | 780000 M⁻¹ s⁻¹ | 2.5 nM | – | – | – | – | – | – | –
2 | 602 M1 glycovariant (N-glycosylation site inserted in the heavy chain) (antibody, mouse IgG2a, kappa, inserted N-linked glycosylation site (position shown only in a drawing), One amino acid changed in the heavy chain to create a new N-glycosylation site; also called Mutant 1) heavy: DEVQLQESGPGLVAPSQSLSITCTVSGFSLTNYDISWIRQPPGKGLEWLGVIWTGGGTNYNSGFMSRLSITKDNSKSQVFLKMNSLQTDDTAIYYCVRQGRTPYWGNGTLVTVSAAKTTAPSVYPLAPVCGDTTGSSVTLGCLVKGYFPEPVTLTWNSGSLSSGVHTFPAVLQSDLYTLSSSVTVTSSTWPSQSITCNVAHPASSTKVDKKIEPRGPTIKPCPPCKCPAPNLLGGPSVFIFPPKIKDVLMISLSPIVTCVVVDVSEDDPDVQISWFVNNVEVHTAQTQTHREDYNSTLRVVSALPIQHQDWMSGKEFKCKVNNKDLPAPIERTISKPKGSVRAPQVYVLPPPEEEMTKKQVTLTCMVTDFMPEDIYVEWTNNGKTELNYKNTEPVLDSDGSYFMYSKLRVEKKNWVERNSYSCSVVHEGLHNHHTTKSFSRTPGK light: AGSDIQVTQSPSSLSVSLGDRVTITCKASKDIYNRLAWYQQKPGNAPRLLISGATSLETGVPSRFSGSGSGKDYTLTITSLQTEDVATYYCQQFWGTPYTFGGGTKLEIKRADAAPTVSIFPPSSEQLTSGGASVVCFLNNFYPKDINVKWKIDGSERQNGVLNSWTDQDSKDSTYSMSSTLTLTKDEYERHNSYTCEATHKTSTSPIVKSFNRNEC | 0.16 nM | 6 nM | 3.2 nM | – | 0.002 s⁻¹ | 790000 M⁻¹ s⁻¹ | 2.5 nM | – | – | – | – | – | – | –
3 | 602 M8 glycovariant (N-glycosylation site inserted in the light chain) (antibody, mouse IgG2a, kappa, inserted N-linked glycosylation site (position shown only in a drawing), Two amino acids changed in the light chain to create a new N-glycosylation site; also called Mutant 8) heavy: DEVQLQESGPGLVAPSQSLSITCTVSGFSLTNYDISWIRQPPGKGLEWLGVIWTGGGTNYNSGFMSRLSITKDNSKSQVFLKMNSLQTDDTAIYYCVRQGRTPYWGQGTLVTVSAAKTTAPSVYPLAPVCGDTTGSSVTLGCLVKGYFPEPVTLTWNSGSLSSGVHTFPAVLQSDLYTLSSSVTVTSSTWPSQSITCNVAHPASSTKVDKKIEPRGPTIKPCPPCKCPAPNLLGGPSVFIFPPKIKDVLMISLSPIVTCVVVDVSEDDPDVQISWFVNNVEVHTAQTQTHREDYNSTLRVVSALPIQHQDWMSGKEFKCKVNNKDLPAPIERTISKPKGSVRAPQVYVLPPPEEEMTKKQVTLTCMVTDFMPEDIYVEWTNNGKTELNYKNTEPVLDSDGSYFMYSKLRVEKKNWVERNSYSCSVVHEGLHNHHTTKSFSRTPGK light: AGSNITVTQSPSSLSVSLGDRVTITCKASKDIYNRLAWYQQKPGNAPRLLISGATSLETGVPSRFSGSGSGKDYTLTITSLQTEDVATYYCQQFWGTPYTFGGGTKLEIKRADAAPTVSIFPPSSEQLTSGGASVVCFLNNFYPKDINVKWKIDGSERQNGVLNSWTDQDSKDSTYSMSSTLTLTKDEYERHNSYTCEATHKTSTSPIVKSFNRNEC | 0.17 nM | 4.5 nM | 2.3 nM | – | 0.0018 s⁻¹ | 1e+06 M⁻¹ s⁻¹ | 1.8 nM | – | – | – | – | – | – | –
4 | F5111 antibody (wild type anti-hIL2 antibody, human IgG1, lambda light chain) (antibody, Expressed in CHO cells, purified on protein G; also called F5111 WT; parent F5111 mAb) heavy: not shown light: GSNFMLTQPHSVSESPGKTVTISCTRSSGSIASNYVQWYQQRPGSSPTTVIYEDNQRPSGVPDRFSGSIDSSSNSASLTISGLKTEDEADYYCQSYDSSNVVFGGGTKLTVLGQPKAAPSVTLFPPSSEELQANKATLVCLISDFYPGAVTVAWKADSSPVKAGVETTTPSKQSNNKYAASSYLSLTPEQWKSHRSYSCQVTHEGSTVEKTVAPTECS | – | – | – | – | – | – | – | 0.00022 s⁻¹ | 360000 M⁻¹ s⁻¹ | 0.15 nM | 0.66 nM | 6.5 nM | 0.63 nM | –
5 | F5111 M1 glycovariant (N-glycosylation site inserted in the heavy chain) (antibody, human IgG1, lambda, inserted N-linked glycosylation site (position shown only in a drawing)) heavy: not shown light: GSNFMLTQPHSVSESPGKTVTISCTRSSGSIASNYVQWYQQRPGSSPTTVIYEDNQRPSGVPDRFSGSIDSSSNSASLTISGLKTEDEADYYCQSYDSSNVVFGGGTKLTVLGQPKAAPSVTLFPPSSEELQANKATLVCLISDFYPGAVTVAWKADSSPVKAGVETTTPSKQSNNKYAASSYLSLTPEQWKSHRSYSCQVTHEGSTVEKTVAPTECS | – | – | – | – | – | – | – | 0.00038 s⁻¹ | 330000 M⁻¹ s⁻¹ | 0.043 nM | 0.89 nM | – | 1.1 nM | 7.8 nM
6 | F5111 M3 glycovariant (N-glycosylation site inserted in the heavy chain) (antibody, human IgG1, lambda, inserted N-linked glycosylation site (position shown only in a drawing)) heavy: not shown light: GSNFMLTQPHSVSESPGKTVTISCTRSSGSIASNYVQWYQQRPGSSPTTVIYEDNQRPSGVPDRFSGSIDSSSNSASLTISGLKTEDEADYYCQSYDSSNVVFGGGTKLTVLGQPKAAPSVTLFPPSSEELQANKATLVCLISDFYPGAVTVAWKADSSPVKAGVETTTPSKQSNNKYAASSYLSLTPEQWKSHRSYSCQVTHEGSTVEKTVAPTECS | – | – | – | – | – | – | – | 0.00017 s⁻¹ | 310000 M⁻¹ s⁻¹ | 0.089 nM | 0.39 nM | – | 0.55 nM | 8.3 nM
7 | F5111 M2 glycovariant (N-glycosylation site inserted in the heavy chain) (antibody, human IgG1, lambda, V domains shown, inserted N-linked glycosylation site (position shown only in a drawing)) VH: QLQLQESGPGLVKPSQTLSLTCTVSGGSISSGGYYWSWIRQHPGKGLEWIGYIYYSGSTYYNPSLKSRVTISVDTSKNQFSLKLSNVTAADTAVYYCARTPTVTGDWFDPWGRGTLVTVSS VL: SNFMLTQPHSVSESPGKTVTISCTRSSGSIASNYVQWYQQRPGSSPTTVIYEDNQRPSGVPDRFSGSIDSSSNSASLTISGLKTEDEADYYCQSYDSSNVVFGGGTKLTVLG | – | – | – | – | – | – | – | 0.00021 s⁻¹ | 270000 M⁻¹ s⁻¹ | 0.098 nM | 0.44 nM | – | 0.76 nM | 9.6 nM
8 | F5111 M4 glycovariant (N-glycosylation site inserted in the light chain) (antibody, human IgG1, lambda, V domains shown, inserted N-linked glycosylation site (position shown only in a drawing)) VH: QLQLQESGPGLVKPSQTLSLTCTVSGGSISSGGYYWSWIRQHPGKGLEWIGYIYYSGSTYYNPSLKSRVTISVDTSKNQFSLKLSSVTAADTAVYYCARTPTVTGDWFDPWGRGTLVTVSS VL: SNFMLTQPHSVSESPGKTVTISCTRSSGSIASNYVQWYQQRPGSSPTTVIYEDNQRPSGVPDRFSGSINSSSNSASLTISGLKTEDEADYYCQSYDSSNVVFGGGTKLTVLG | – | – | – | – | – | – | – | 0.00014 s⁻¹ | 270000 M⁻¹ s⁻¹ | 0.17 nM | 0.52 nM | – | 0.5 nM | 9.7 nM
9 | F5111 M5 glycovariant (N-glycosylation site inserted in the light chain) (antibody, human IgG1, lambda, V domains shown, inserted N-linked glycosylation site (position shown only in a drawing)) VH: QLQLQESGPGLVKPSQTLSLTCTVSGGSISSGGYYWSWIRQHPGKGLEWIGYIYYSGSTYYNPSLKSRVTISVDTSKNQFSLKLSSVTAADTAVYYCARTPTVTGDWFDPWGRGTLVTVSS VL: SNFMLTQPHSVSESPGKTVTISCTRSSGSIASNYVQWYQQRPGSSPTTVIYEDNQRPSGVPDRFSGSIDNSSNSASLTISGLKTEDEADYYCQSYDSSNVVFGGGTKLTVLG | – | – | – | – | – | – | – | 0.00023 s⁻¹ | 280000 M⁻¹ s⁻¹ | 0.039 nM | 0.79 nM | – | 0.82 nM | 9.8 nM
